Data set [1] deals with the molecule itself. Kind of data set: sedimentation equilibrium, monomer-dimer equilibrium model, in the absence of calcium; extrapolated dimer dissociation constant. An excerpt:
(§1) The hydroxyapatite lattice binding mode represented by the best solution presupposes that osteocalcin engages hydroxyapatite with the acidic Ca²⁺-coordinating surface as a monomer. In the crystal structure of porcine osteocalcin, however, the five Ca²⁺ ions are sandwiched between two crystallographically related protein molecules. If overly stable, this dimeric state could present an impediment to hydroxyapatite binding. To investigate whether porcine osteocalcin exists as a monomer or dimer in solution, sedimentation equilibrium analysis in the presence and absence of 10 mM CaCl₂ was carried out. In both cases, the sedimentation equilibrium data were best fitted to a monomer-dimer equilibrium model (FIG. 6). […] Theses Kd values are 2-3 orders of magnitude higher than the concentration of osteocalcin in human serum […],³¹ showing that osteocalcin exists as a monomer in vivo.

Data set [2] concerns the molecule itself. Kind of data set: sedimentation equilibrium, monomer-dimer equilibrium model, in the presence of 10 mM CaCl2; extrapolated dimer dissociation constant.
Source text: as §1

Bridges are numbered along the chain shown (N, C = ends). Where no end group is shown, it is not given here. [ ]: non-standard residue; d: D form. Gla = N[C@@H](CC(C(=O)O)C(=O)O)C(=O)O

B1: porcine osteocalcin (other)
chain: YLDHGLGAPAPYPDPL[Gla]PRR[Gla]VC[Gla]LNPDCDELADHIGFQEAYRRFYGIA
modifications: disulfide 23-29; not fully specified
notes: the entries describe its self-association into a dimer; In the crystal only residues 13-49 are ordered (residues 1 to 12 missing from the model); also called pOC; POC13-49 (part seen in the crystal structure)
In general, Kd refers to a measure of binding affinity in units of concentration. As to B1, the results for the Kd in data set [1] and in data set [2] were 800 µM and 200 µM, respectively.

(Values after patent publication US20110117658A1 (published 2011).)
